Data published in EP1088069B1.

What was measured:
Assay in all cases: cell-based or functional assay
[1] = target: Angiostatin + Binding Domain (yeast two-hybrid bait fusion) (UniProt P00747)
Binding Domain alone = target: Binding Domain alone
p53 + Binding Domain = target: p53 + Binding Domain

UniProt P00747, sequence (P00747 99-459): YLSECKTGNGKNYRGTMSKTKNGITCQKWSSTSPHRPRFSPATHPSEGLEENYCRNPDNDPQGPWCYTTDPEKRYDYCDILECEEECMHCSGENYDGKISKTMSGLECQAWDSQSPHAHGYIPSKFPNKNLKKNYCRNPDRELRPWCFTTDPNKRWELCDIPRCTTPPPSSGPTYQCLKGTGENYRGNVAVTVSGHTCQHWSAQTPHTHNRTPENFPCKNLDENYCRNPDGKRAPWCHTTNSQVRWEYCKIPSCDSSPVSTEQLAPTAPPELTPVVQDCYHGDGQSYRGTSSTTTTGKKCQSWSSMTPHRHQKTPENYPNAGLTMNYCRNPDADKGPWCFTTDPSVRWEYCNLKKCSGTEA

| Substance | β-Gal Activity [1] [u] | β-Gal Activity (Binding Domain alone) [u] | β-Gal Activity (p53 + Binding Domain) [u] |
| --- | --- | --- | --- |
| Activation Domain alone (from UniProt P04386 768-881) | < 0.04 | – | – |
| Big3 - Activation Domain (yeast two-hybrid prey fusion) (from UniProt Q4VCS5 871-1013) | 15 | 0.07 | 0.05 |
| SV40LT - Activation Domain (from UniProt P03070 84-708) | – | – | 90 |
